Test results taken from paper PMC5655238.

Target: Bcl-2 (UniProt P10415)
Test: anti-HA IP, Bcl-2 blot
Conditions: reference: HA-Beclin-1 wild type; sites T119

Beclin-1 (from UniProt Q14457) HA-Beclin-1 T119A
binding against the reference: stronger
